Experimental data from patent US8501695B2, “Tissue kallikrein for the treatment of diseases associated with amyloid protein” (DiaMedica, Inc., priority 2007, dated 2013).

Assays:
[1] = test system: amyloid fibrils (fAβ) from synthetic human amyloid protein Aβ1-42 or Aβ1-40; test: In vitro amyloid protein cleavage assay, digestion of fibrils, mass spectroscopy; type: biochemical; conditions: 37° C., 4 h to 5 days, mass spectra FIG. 1
Method: Synthetic human amyloid protein Aβ1-42 or Aβ1-40 was dissolved in dimethyl sulfoxide (DMSO) (Sigma, St. Louis, Mo.) to a concentration of 5 mM, and is then diluted in MilliQ® water to a final concentration of […] immediately prior to use. To prepare amyloid fibrils (fAβ) 5 mM Aβ1-42 or Aβ1-40 in DMSO was diluted in 10 mM HCl to 100 μM (for Aβ1-42) or […] (for Aβ1-40), vortexed for 30 s, and was incubated at 37° C. for 5 days. KLK1 (Sigma) was used for digestion reactions in the following buffers: ECE, 0.1 M MES, 0.1 M NaCl (pH 6.0); IDE, 50 mM Tris, 1 M NaCl (pH 7.5); NEP, 0.1 M MES (pH 6.5); and MMP-9, 50 mM Tris-HCl (pH 7.5), 10 mM CaCl2, 150 mM NaCl, 0.05% Brij 35. It was incubated at 37° C. for 4 h to 5 days. After digestion, the reaction was analyzed by mass spectroscopy. The samples were added to 50 mM glycine (pH 9.2)/2 mM thioflavin T (ThT) (Sigma) at a final volume of up to 2 ml. […] However, in panel C, there is a clear peak at about 2423 M/Z (mass to charge ration), which is an indication of cleavage.

[2] = test system: rat mixed cortical cultures (RMCC); test: Aβ1-42 toxicity in rat mixed cortical cultures, neuronal survival (NeuN cell count); type: cell-based
Method: Whether pre-treatment with tissue kallikrein protects rat mixed cortical cultures against exposure to human amyloid beta peptide (Aβ1-42) was investigated. Cell death was analyzed by LDH-release, an indication of necrosis, and cell viability was also analyzed by neuronal cell count. First (Study Arm A), tissue kallikrein was added to the cells only prior to the Aβ1-42 insult (at −24 h and at −30 min). Whereas in the second part (Study Arm B), tissue kallikrein was added to the cells prior to (−30 min) and also at +24 h after the Aβ1-42 insult. At the +24 h time point, cell culture media were not changed (tissue kallikrein or corresponding amount of vehicle was added to the wells), whereas at −24 h and −30 min time point cell culture media were changed.
[…] Cell Culture. Mixed cortical cultures were prepared from E18 Wistar rat embryos (National Animal Center, Kuopio, Finland). The cortices were dissected out, and the tissue cut to small pieces. The cells were separated by 15-min incubation with DNase and papain. The cells were collected by centrifugation (1500 rpm, 5 min). The tissue was triturated with a pipette and the cells were plated on poly-L-lysine-coated 48-well plates, 300,000 cells/cm^2, in MEM (2 g/L glucose) supplemented with 2 mM glutamine, 0.1 μg/ml gentamicin, 10% heat-inactivated fetal bovine serum (FBS-HI) and 10% heat-inactivated horse serum (HS-HI). After 3-4 h, the media were changed to MEM (2 g/L glucose) supplemented with 2 mM glutamine, 0.1 μg/ml gentamicin, 5% HS-HI. After three days in vitro, media containing MEM (2 g/L glucose) supplemented with glutamine, gentamicin, and 5% of both sera were changed to the cells. On day 6 in vitro, the unwanted cell division was inhibited by adding cytosine arabinoside (10 μM final concentration) for 24 h. The cultures were refed with MEM (2 g/L glucose) supplemented with glutamine, gentamicin, and 5% HS-HI before experiments.
Aβ1-42 Exposure. Tissue kallikrein (SEQ ID NO:1) was dissolved and further diluted in MEM supplemented with glucose, glutamine, gentamicin, and 5% HS-HI. As a control for total neuronal death, 300 μM N-methyl-D-aspartic acid (NMDA) for 48 h was used, and 10 μM Aβ1-42 for 48 h was used to induce approximately 30-50% cell death. Wells treated with media only served as 0-control. Tissue kallikrein or vehicle was pipetted to the cells −24 h and −30 min before adding 10 μM Aβ1-42 (final concentration). Tissue kallikrein or vehicle was again pipetted to the cells at +24 h after exposure.
Immunocytochemistry for Neuronal Survival. For neuronal counts, the cultures were fixed with 4% paraformaldehyde in 0.01 M PBS for 30 min and washed twice with PBS. The fixed cells were first permeabilized, and non-specific binding blocked by 30 min incubation with blocking buffer containing 1% bovine serum albumin and 0.3% Triton® X-100 in PBS. Anti-neuronal nuclei antibody (anti-NeuN, dilution 1:500, Chemicon, Temecula, Calif.) was used as the primary antibody. The cells were incubated with the primary antibody for 48 h, followed by incubation with a biotinylated secondary antibody (1:200, Vector Labs) for 2 h, and the avidin-biotin-peroxidase complex (ABC-reagent, 1:200, Vector ABC Elite Kit, Vector Labs) for 2 h. The positive cells were visualized using Ni-enhanced DAB as a substrate (DAB Substrate kit, Vector Labs). The NeuN immunopositive neurons were counted using a light microscope. Altogether, 2 fields of each well were counted. The results are shown as percent viable neurons.
Data Analysis. The number of wells per compound concentration used was 6 (n=6). […] Statistical analysis was performed using StatsDirect statistical software. The values were analyzed by one-way ANOVA followed by Dunnet's test (comparison to the vehicle-treated group). Results are presented as mean±standard deviation (SD) and differences are considered to be statistically significant at the P<0.05 level.

Chain of amyloid fibrils (fAβ) from synthetic human amyloid protein Aβ1-42 or Aβ1-40 (P05067 672-711 limits assumed): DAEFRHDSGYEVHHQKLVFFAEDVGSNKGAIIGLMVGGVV

B1: tissue kallikrein: serine protease that cleaves kininogen into kallidin; polypeptide SEQ ID NO:1 (Sus scrofa kallikrein 1), KLK1 from Sigma (protein, listed as Sus scrofa)
chain: MWSLVMRLALSLAGTGAAPPIQSRIIGGRECEKDSHPWQVAIYHYSSFQCGGVLVDPKWVLTAAHCKNDNYQVWLGRHNLFENEVTAQFFGVTADFPHPGFNLSLLKNHTKADGKDYSHDLMLLRLQSPAKITDAVKVLELPTQEPELGSTCQASGWGSIEPGPDDFEFPDEIQCVELTLLQNTFCADAHPDKVTESMLCAGYLPGGKDTCMGDSGGPLICNGMWQGITSWGHTPCGSANKPSIYTKLIFYLDWINDTITENP
modifications: 125I label in one form
In the case of B1, the “cleavage of amyloid fibrils” value [1] is reported as “cleaves amyloid fibrils”, the “cell counts (survival) after Aβ1-42 insult” value (“cell counts (survival)” for short) ([2]; Study Arm A, 1.0 μg/ml) is reported as “provided protection” and the “cell counts (survival)” value ([2]; Study Arm A, 10 μg/ml) is reported as “protection provided by 10 μg/ml was statistically significant”. For the same molecule, the “cell counts (survival)” value ([2]; Study Arm A, lower concentrations) was “did not affect cell counts”, the “cell counts (survival)” value ([2]; Study Arm B, 1.0 μg/ml) was “Increases in cell counts” and the “cell counts (survival)” value ([2]; Study Arm B, 10 μg/ml) was “protection provided by 10 μg/ml was statistically significant”. The “cell counts (survival)” value ([2]; Study Arm B, lower concentrations) was “did not affect cell counts”.
